Source: patent US20240400670A1 (JIANGSU HENGRUI PHARMACEUTICALS, published 2024)

T1: human IL-23 (Sino Biological, CT048-H08H) (human, UniProt Q9NPF7 20-189; P29460 23-328)
T1 sequence (looked up) 1: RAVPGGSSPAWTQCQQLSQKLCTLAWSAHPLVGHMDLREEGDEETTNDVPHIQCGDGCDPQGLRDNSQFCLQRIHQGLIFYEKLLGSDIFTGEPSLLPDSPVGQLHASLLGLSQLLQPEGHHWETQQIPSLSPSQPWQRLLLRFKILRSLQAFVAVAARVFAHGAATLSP
T1 sequence (looked up) 2: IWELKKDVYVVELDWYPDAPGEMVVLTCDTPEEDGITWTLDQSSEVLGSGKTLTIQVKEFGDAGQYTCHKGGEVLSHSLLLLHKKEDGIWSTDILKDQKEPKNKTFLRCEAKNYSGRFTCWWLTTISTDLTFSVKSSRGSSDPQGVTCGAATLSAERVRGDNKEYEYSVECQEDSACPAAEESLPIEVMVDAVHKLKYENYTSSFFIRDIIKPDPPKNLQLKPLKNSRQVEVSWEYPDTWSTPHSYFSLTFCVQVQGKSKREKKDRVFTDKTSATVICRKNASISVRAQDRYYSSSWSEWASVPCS


Legend:
[1] = molecular target: T1, human IL-23 (Sino Biological, …); assay: cell-based or functional assay
[2] = molecular target: T1, human IL-23 (Sino Biological, …); assay: SPR (Biacore), Protein A capture of sample, 1:1 model
Protocol: A certain amount of test sample was subjected to affinity capture by a biosensor chip Protein A (GE, 29127556), and then antigens at a series of concentration gradients were allowed to flow on the surface of the chip. The reaction signals were detected in real time by using Biacore (GE, 8 K) to obtain association and dissociation curves. After the dissociation was completed for each cycle, the biochip was washed and regenerated with a 10 mM glycine-hydrochloric acid solution at pH 1.5 (GE, BR-1003-54). Fitting was performed based on the experimental data using BlAevaluation version 4.1 software with a 1:1 model, and affinity values were obtained.

[3] = molecular target: T1, human IL-23 (Sino Biological, …); assay: competition ELISA, blocks IL-23/IL-23R; IL-23R coated, biotin-IL-23 + sample gradient
Protocol: The specific procedures are as follows:
The receptor protein was diluted to 2 μg/mL with a PBS (BasalMedia, B320) buffer at pH 7.4 and added to a 96-well microplate (Corning, 3590) at 100 μL/well. The plate was incubated at 4° C. overnight. After the liquid was discarded, 1 % Casein blocking solution (Thermo, 37528) was added at 200 μL/well for blocking, and the plate was incubated at 37° C. for 2 h. After the blocking was complete, the blocking solution was discarded, and the plate was washed 3 times with a PBST buffer (pH 7.4 PBS containing 0.1 % tween-20) for later use. After the biotin-labeled ligand protein at a fixed concentration was mixed with an antibody or fusion protein diluted in a gradient, the mixture was pre-incubated at 37° C. for 30 min and then added to the blocked microplate. The plate was incubated at 37° C. for 1.5 h. After the incubation was complete, the plate was washed 3 times with PBST. Streptavidin-HRP (Invitrogen, 434323, diluted at 1:4000) was added at 100 μL/well, and the plate was incubated at 37° C. for 1 h. The supernatant was removed. After the plate was washed 3 times with PBST, TMB chromogenic substrate (KPL, 5120-0077) was added at 100 μL/well, and the plate was incubated at room temperature for 10⁻¹⁵ min. 1 M H₂SO₄ was added at 50 μL/well to terminate the reaction. The absorbance values at 450 nm were taken using a microplate reader. Curves for the inhibition of binding of the ligands to the receptors were fitted using software, and the IC₅₀ values were calculated.

Binder | Activity in inhibiting proliferation of BaF3-IL-23R cells (IC50, nM) [1] | Kd [2] | koff [2] | kon [2] | IC50 [3]
Hu38-10 (antibody, human IgG1, kappa, L234A L235A, V domains shown, humanized mAb38, IgG1/kappa) VH: EFQLVQSGAEVKKPGASVKVSCKASGYSFTDHNMNWVRQAPGQRLEWMGVINPNYGTTTYNQKFKGRVTITVDQSASTAYMELSSLRSEDTAVYYCARRGFAYWGQGTLVTVSS VL: DIVMTQTPLSLPVTPGEPASISCRSSKSLLYKDGKTYLNWFLQKPGQSPQLLIYLMSTRASGVPDRFSGSGSGTDLTLKISRVEAEDVGVYYCQQIAEYPFTFGSGTKLEIKR | 0.116 nM | 0.197 nM | 7.07e-05 s⁻¹ | 358000 M⁻¹ s⁻¹ | 
Hu38-1 (antibody, human IgG1, kappa, L234A L235A, V domains shown, humanized mAb38, IgG1/kappa) VH: EFQLVQSGAEVKKPGASVKVSCKASGYTFTDHNMNWVRQAPGQRLEWMGVINPNYGTTTYNQKFKGRVTITVDTSASTAYMELSSLRSEDTAVYYCARRGFAYWGQGTLVTVSS VL: DIVMTQTPLSLPVTPGEPASISCRSSKSLLYKDGKTYLNWYLQKPGQSPQLLIYLMSTRASGVPDRFSGSGSGTDFTLKISRVEAEDVGVYYCQQIAEYPFTFGSGTKLEIKR | 0.168 nM | 0.206 nM | 4.56e-05 s⁻¹ | 222000 M⁻¹ s⁻¹ | 
Hu38-2 (antibody, human IgG1, kappa, L234A L235A, V domains shown, humanized mAb38, IgG1/kappa) VH: EFQLVQSGAEVKKPGASVKVSCKASGYTFTDHNMNWVRQAPGQRLEWMGVINPNYGTTTYNQKFKGRVTITVDTSASTAYMELSSLRSEDTAVYYCARRGFAYWGQGTLVTVSS VL: DIVMTQTPLSLPVTPGEPASISCRSSKSLLYKDGKTYLNWFLQKPGQSPQLLIYLMSTRASGVPDRFSGSGSGTDLTLKISRVEAEDVGVYYCQQIAEYPFTFGSGTKLEIKR | 0.138 nM | 0.18 nM | 6.05e-05 s⁻¹ | 337000 M⁻¹ s⁻¹ | 0.465 nM
Hu38-3 (antibody, human IgG1, kappa, L234A L235A, V domains shown, humanized mAb38, IgG1/kappa) VH: EFQLVQSGAEVKKPGASVKVSCKASGYTFTDHNMNWVRQAPGQRLEWMGVINPNYGTTTYNQKFKGRVTITVDTSASTAYMELSSLRSEDTAVYYCARRGFAYWGQGTLVTVSS VL: DIVITQTPLSLPVTPGEPASISCRSSKSLLYKDGKTYLNWFLQRPGQSPQLLIYLMSTRASGVPDRFSGSGSGTDLTLKISRVEAEDVGVYYCQQIAEYPFTFGSGTKLEIKR | 0.174 nM | 0.113 nM | 4.44e-05 s⁻¹ | 393000 M⁻¹ s⁻¹ | 
Hu38-6 (antibody, human IgG1, kappa, L234A L235A, V domains shown, humanized mAb38, IgG1/kappa) VH: EVQLVQSGAEVKKPGASVKVSCKASGYSFTDHNMNWVRQAPGQRLEWMGVINPNYGTTTYNQKFKGRVTITVDTSASTAYMELSSLRSEDTAVYYCARRGFAYWGQGTLVTVSS VL: DIVMTQTPLSLPVTPGEPASISCRSSKSLLYKDGKTYLNWFLQKPGQSPQLLIYLMSTRASGVPDRFSGSGSGTDLTLKISRVEAEDVGVYYCQQIAEYPFTFGSGTKLEIKR | 0.136 nM | 0.143 nM | 3.91e-05 s⁻¹ | 273000 M⁻¹ s⁻¹ | 
Hu38-7 (antibody, human IgG1, kappa, L234A L235A, V domains shown, humanized mAb38, IgG1/kappa) VH: EVQLVQSGAEVKKPGASVKVSCKASGYSFTDHNMNWVRQAPGQRLEWMGVINPNYGTTTYNQKFKGRVTITVDTSASTAYMELSSLRSEDTAVYYCARRGFAYWGQGTLVTVSS VL: DIVITQTPLSLPVTPGEPASISCRSSKSLLYKDGKTYLNWFLQRPGQSPQLLIYLMSTRASGVPDRFSGSGSGTDLTLKISRVEAEDVGVYYCQQIAEYPFTFGSGTKLEIKR | 0.179 nM | 0.152 nM | 7.41e-05 s⁻¹ | 486000 M⁻¹ s⁻¹ | 
Hu38-8 (antibody, human IgG1, kappa, L234A L235A, V domains shown, humanized mAb38, IgG1/kappa) VH: EVQLVQSGAEVKKPGASVKVSCKASGYSFTDHNMNWVRQAPGQRLEWMGVINPNYGTTTYNQKFKGRVTITVDTSASTAYMELSSLRSEDTAVYYCARRGFAYWGQGTLVTVSS VL: DIVMTQTPLSLPVTPGEPASISCRSSKSLLYKDGKTYLNWFLQKPGQSPQLLIYLMQTRASGVPDRFSGSGSGTDLTLKISRVEAEDVGVYYCQQIAEYPFTFGSGTKLEIKR | 0.174 nM | 0.168 nM | 4.75e-05 s⁻¹ | 282000 M⁻¹ s⁻¹ | 
Hu38-11 (antibody, human IgG1, kappa, L234A L235A, V domains shown, humanized mAb38, IgG1/kappa) VH: EFQLVQSGAEVKKPGASVKVSCKASGYSFTDHNMNWVRQAPGQRLEWMGVINPNYGTTTYNQKFKGRVTITVDQSASTAYMELSSLRSEDTAVYYCARRGFAYWGQGTLVTVSS VL: DIVITQTPLSLPVTPGEPASISCRSSKSLLYKDGKTYLNWFLQRPGQSPQLLIYLMSTRASGVPDRFSGSGSGTDLTLKISRVEAEDVGVYYCQQIAEYPFTFGSGTKLEIKR | 0.168 nM | 0.176 nM | 6.15e-05 s⁻¹ | 349000 M⁻¹ s⁻¹ | 
Hu38-12 (antibody, human IgG1, kappa, L234A L235A, V domains shown, humanized mAb38, IgG1/kappa) VH: EFQLVQSGAEVKKPGASVKVSCKASGYSFTDHNMNWVRQAPGQRLEWMGVINPNYGTTTYNQKFKGRVTITVDQSASTAYMELSSLRSEDTAVYYCARRGFAYWGQGTLVTVSS VL: DIVMTQTPLSLPVTPGEPASISCRSSKSLLYKDGKTYLNWFLQKPGQSPQLLIYLMQTRASGVPDRFSGSGSGTDLTLKISRVEAEDVGVYYCQQIAEYPFTFGSGTKLEIKR | 0.184 nM | 0.191 nM | 6.12e-05 s⁻¹ | 321000 M⁻¹ s⁻¹ | 
Hu38-14 (antibody, human IgG1, kappa, L234A L235A, V domains shown, humanized mAb38, IgG1/kappa) VH: EFQLVQSGAEVKKPGASVKVSCKASGYSFTDHNMNWVRQAPGQSLEWMGVINPNYGTTTYNQKFKGRVTITVDQSASTAYMELSSLRSEDTAVYYCARRGFAYWGQGTLVTVSS VL: DIVMTQTPLSLPVTPGEPASISCRSSKSLLYKDGKTYLNWFLQKPGQSPQLLIYLMSTRASGVPDRFSGSGSGTDLTLKISRVEAEDVGVYYCQQIAEYPFTFGSGTKLEIKR | 0.152 nM | 0.175 nM | 5.45e-05 s⁻¹ | 312000 M⁻¹ s⁻¹ | 
Hu38-15 (antibody, human IgG1, kappa, L234A L235A, V domains shown, humanized mAb38, IgG1/kappa) VH: EFQLVQSGAEVKKPGASVKVSCKASGYSFTDHNMNWVRQAPGQSLEWMGVINPNYGTTTYNQKFKGRVTITVDQSASTAYMELSSLRSEDTAVYYCARRGFAYWGQGTLVTVSS VL: DIVITQTPLSLPVTPGEPASISCRSSKSLLYKDGKTYLNWFLQRPGQSPQLLIYLMSTRASGVPDRFSGSGSGTDLTLKISRVEAEDVGVYYCQQIAEYPFTFGSGTKLEIKR | 0.149 nM | 0.168 nM | 8.3e-05 s⁻¹ | 494000 M⁻¹ s⁻¹ | 
Hu38-16 (antibody, human IgG1, kappa, L234A L235A, V domains shown, humanized mAb38, IgG1/kappa) VH: EFQLVQSGAEVKKPGASVKVSCKASGYSFTDHNMNWVRQAPGQSLEWMGVINPNYGTTTYNQKFKGRVTITVDQSASTAYMELSSLRSEDTAVYYCARRGFAYWGQGTLVTVSS VL: DIVMTQTPLSLPVTPGEPASISCRSSKSLLYKDGKTYLNWFLQKPGQSPQLLIYLMQTRASGVPDRFSGSGSGTDLTLKISRVEAEDVGVYYCQQIAEYPFTFGSGTKLEIKR | 0.146 nM | 0.161 nM | 5.49e-05 s⁻¹ | 341000 M⁻¹ s⁻¹ | 
risankizumab (antibody, human IgG1, kappa, L234A L235A, V domains shown, control anti-IL-23 antibody; also called control molecule) VH: QVQLVQSGAEVKKPGSSVKVSCKASGYTFTDQTIHWMRQAPGQGLEWIGYIYPRDDSPKYNENFKGKVTITADKSTSTAYMELSSLRSEDTAVYYCAIPDRSGYAWFIYWGQGTLVTVSS VL: DIQMTQSPSSLSASVGDRVTITCKASRDVAIAVAWYQQKPGKVPKLLIYWASTRHTGVPSRFSGSGSRTDFTLTISSLQPEDVADYFCHQYSSYPFTFGSGTKLEIKR |  | 0.0651 nM | 4.91e-05 s⁻¹ | 754000 M⁻¹ s⁻¹ | 0.61 nM
